The values that follow come from PMC8699845.

Experiment [1] concerns the target Recombinant human Wnt Inhibitory Factor 1 (human) (UniProt Q9Y5W5). Put plainly: SPR; BIACORE X; WIF1 or WIF domain amine-coupled to CM5 chip, rhShh injected at 20 µL/min; 20 mM Tris, 150 mM NaCl, 5 mM EDTA, 0.005% Tween 20, 100 µM CHAPS, pH 7.4; 1:1 Langmuir fit. For orientation: Surface plasmon resonance follows binding to a sensor surface in real time, without labels.

Experiment [2] concerns the target WIF domain of human WIF1 protein (human) (UniProt Q9Y5W5). The experiment is described as above.
The target in experiment [3] is dually lipidated recombinant human sonic hedgehog (human).

UniProt Q9Y5W5, sequence (Q9Y5W5 29-379): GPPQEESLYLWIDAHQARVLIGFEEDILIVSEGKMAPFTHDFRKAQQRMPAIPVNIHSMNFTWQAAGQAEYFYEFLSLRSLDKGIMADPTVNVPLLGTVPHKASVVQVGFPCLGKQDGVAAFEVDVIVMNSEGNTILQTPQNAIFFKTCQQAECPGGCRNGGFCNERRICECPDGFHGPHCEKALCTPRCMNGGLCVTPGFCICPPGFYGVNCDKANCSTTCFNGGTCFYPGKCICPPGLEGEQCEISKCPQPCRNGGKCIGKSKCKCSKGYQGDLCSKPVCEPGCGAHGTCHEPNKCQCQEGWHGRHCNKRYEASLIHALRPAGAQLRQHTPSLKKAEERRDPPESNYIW

As usually defined, the Kd is a measure of binding affinity in units of concentration. As usually defined, the koff is a measure of how fast the partners let go of each other. One may read the kon as the rate constant with which the complex forms. As to “dually lipidated recombinant human sonic hedgehog (ligand)”, in experiment [1], the Kd worked out at 2.06 nM, the koff amounted to 0.000141 s⁻¹ and the kon worked out at 68500 M⁻¹ s⁻¹. In experiment [2], this molecule displayed a dissociation constant Kd of 1.18 nM, a koff of 5.03e-05 s⁻¹ and a kon of 42600 M⁻¹ s⁻¹.

B1: WIF domain of human WIF1 protein (domain or fragment)
chain: LWIDAHQARVLIGFEEDILIVSEGKMAPFTHDFRKAQQRMPAIPVNIHSMNFTWQAAGQAEYFYEFLSLRSLDKGIMADPTVNVPLLGTVPHKASVVQVGFPCLGKQDGVAAFEVDVIVMNSEGNTILQTPQNAIFFKTC
With B1, the Gli luciferase reporter in Gli Reporter-NIH3T3 cells; inhibition of the signaling activity of 0.2 nM rhShh preincubated with 0-50 nM WIF domain; EC50 in experiment [3] came to 2.75 nM.
